For nine molecules, binding result and binding signal results are on record in paper PMC7867654.

The labels stand for the following.
B1: 36 bp ATrich (dsDNA)
DNA 1: TATATAAATTAATATATAATTATATTATATTAAAAT
DNA 2: ATTTTAATATAATATAATTATATATTAATTTATATA
B2: 48 bp ATrich (dsDNA)
DNA 1: ATATTTTATATATATATAAATTAATATATAATTATATTATATTAAAAT
DNA 2: ATTTTAATATAATATAATTATATATTAATTTATATATATATAAAATAT
B3: 36 bp LHX6 (dsDNA)
DNA 1: TCCGCCCGCTCGACGCGCGCCGGGAAATTGAAGCGG
DNA 2: CCGCTTCAATTTCCCGGCGCGCGTCGAGCGGGCGGA
B4: 24 bp ATrich (dsDNA)
DNA 1: TATATAATTATATTATATTAAAAT
DNA 2: ATTTTAATATAATATAATTATATA
B5: 24 bp LHX6 (dsDNA)
DNA 1: ACGCGCGCCGGGAAATTGAAGCGG
DNA 2: CCGCTTCAATTTCCCGGCGCGCGT
B6: 48 bp LHX6 (dsDNA)
DNA 1: GCGCTAGGAGCATCCGCCCGCTCGACGCGCGCCGGGAAATTGAAGCGG
DNA 2: CCGCTTCAATTTCCCGGCGCGCGTCGAGCGGGCGGATGCTCCTAGCGC
B7: 96 bp ATrich (dsDNA)
DNA 1: TATATTTTATATATATATAAATTAATATATAATTATATTATATTAAAATTAATATTATATTTAAATTATTATATATATATAAATAATTTAATTATA
DNA 2: TATAATTAAATTATTTATATATATATAATAATTTAAATATAATATTAATTTTAATATAATATAATTATATATTAATTTATATATATATAAAATATA
B8: 96 bp (dsDNA)
DNA 1: TGAATTAGTGTCAATATCCCTACTTCAATTTCCTAGTATATATTAAGTAGGTAGATGCTCCTAGTACTCTGGGTTTTATTTTCTCAACCACCACCA
DNA 2: TGGTGGTGGTTGAGAAAATAAAACCCAGAGTACTAGGAGCATCTACCTACTTAATATATACTAGGAAATTGAAGTAGGGATATTGACACTAATTCA
B9: 12 bp GC (dsDNA)
DNA 1: GGGCGGCCGCCC
DNA 2: GGGCGGCCGCCC

The first data set has as its target PRC2-AEBP2 (PRC2.2, 5-mer) (Homo sapiens, UniProt Q15910-2;O75530;Q15022;Q09028;Q6ZN18 1-751;1-441;1-739;1-425;1-517). Description: EMSA. In general terms: Mobility shift assays separate free from complexed probe on a gel.
Consider B1, for which the binding result was “no binding”.

Take B2: the binding result was “no binding”.

As for B3, the binding result was “no binding”.

In the case of B4, the binding result was “no binding”.

With B5, the binding result is reported as “no binding”.

As for B6, the binding result is on record as “no binding”.

The next data set addresses T1, PRC2-PHF19 (PRC2.1, 5-mer) (Homo sapiens, UniProt Q15910-2;O75530;Q15022;Q09028;Q5T6S3 1-751;1-441;1-739;1-425;1-580). Description: EMSA.
Consider B7, for which the binding result is recorded as “binds”.

As to B8, the binding result was “binds”.

In the case of B9, the binding result was “no binding”.

Another data set concerns the target T1, PRC2-PHF19 (PRC2.1, 5-mer). Description: EMSA. The source holds these as a separate data set.
As to B4, the binding signal was ~5 fold weaker than 24 bp LHX6.

Consider B5, for which the binding signal was ~5 fold tighter than 24 bp ATrich; weaker than 48 bp.
